These results are taken from the supplement of paper PMC5998384.

For data set [1], the system named is HeLa Kyoto. The data set can be described thus: thermal stability score vs G1/S (z-score of summed log2 fold changes over temperatures); higher = more thermally stable than in G1/S.
The subject of data set [2] is HeLa Kyoto. The data set can be described thus: solubility in G1/S (NP-40 vs SDS abundance) (log2 ratio); higher = more soluble. As to conditions: cell cycle stage: G1/S.
Data set [3] relates to HeLa Kyoto. The data set can be described thus: melting temperature (median over replicates), in situ; higher = more thermally stable.
For data set [4], the system named is HeLa Kyoto. The data set can be described thus: solubility change mitosis vs G1/S (difference of NP-40 vs SDS log2 ratios) (log2 ratio difference); higher = more soluble in mitosis.
Setting [5] is: cell cycle stage: early G1 (4.5 h after nocodazole release).
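Throughout, for melting temperature (median over replicates), in situ: HeLa Kyoto cells synchronized by double thymidine or nocodazole block, proteins quantified by TMT10plex mass spectrometry, three independent biological replicates.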
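Throughout, for solubility change mitosis vs G1/S (difference of NP-40 vs SDS log2 ratios): synchronized HeLa Kyoto cells (double thymidine block for G1/S, nocodazole release for mitosis), protein amounts in NP-40 versus SDS lysates quantified by mass spectrometry, three biological replicates.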
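Throughout, for solubility in G1/S (NP-40 vs SDS abundance): HeLa Kyoto cells arrested at G1/S by double thymidine block, proteins quantified by TMT10plex mass spectrometry in mild NP-40 versus SDS extracts, three biological replicates.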
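Throughout, for thermal stability score vs G1/S (z-score of summed log2 fold changes over temperatures): synchronized HeLa Kyoto cells, proteins quantified by TMT10plex mass spectrometry, three biological replicates, mitosis taken 0.5 h after nocodazole release, G1/S directly after double thymidine block.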

For “MPPKVTSELLRQLRQAMRNSEYVTEPIQAYIIPSGDAHQSEYIAPCDCRRAFVSGFDGSAGTAIITEEHAAMWTDGRYFLQAAKQMDSNWTLMKMGLKDTPTQEDWLVSVLPEGSRVGVDPLIIPTDYWKKMAKVLRSAGHHLIPVKENLVDKIWTDRPERPCKPLLTLGLDYTGISWKDKVADLRLKMAERNVMWFVVTALDEIAWLFNLRGSDVEHNPVFFSYAIIGLETIMLFIDGDRIDAPSVKEHLLLDLGLEAEYRIQVHPYKSILSELKALCADLSPREKVWVSDKASYAVSETIPKDHRCCMPYTPICIAKAVKNSAESEGMRRAHIKDAVALCELFNWLEKEVPKGGVTEISAADKAEEFRRQQADFVDLSFPTISSTGPNGAIIHYAPVPETNRTLSLDEVYLIDSGAQYKDGTTDVTRTMHFGTPTAYEKECFTYVLKGHIAVSAAVFPTGTKGHLLDSFARSALWDSGLDYLHGTGHGVGSFLNVHEGPCGISYKTFSDEPLEAGMIVTDEPGYYEDGAFGIRIENVVLVVPVKTKYNFNNRGSLTFEPLTLVPIQTKMIDVDSLTDKECDWLNNYHLTCRDVIGKELQKQGRQEALEWLIRETQPISKQH [XPNPEP1]”, the figures for the thermal stability score in the data set with HeLa Kyoto [1] (setting [5]) and in the data set on HeLa Kyoto [1] (cell cycle stage: mitosis) were -1 and -3.97, respectively. Also, the “solubility in G1/S (log2)” value with HeLa Kyoto [2] was found to be 0.105. In addition, the results for the melting temperature in the data set with HeLa Kyoto [3] (cell cycle stage: G1/S) and in the data set with HeLa Kyoto [3] (cell cycle stage: mitosis) were 53 °C and 51.9 °C, respectively. For the same sequence, the “solubility change mitosis (log2)” value in the data set on HeLa Kyoto [4] was -0.14.
Turning to “MPPPQGDVTALFLGPPGLGKSALIAALCDKDVETLEAPEGRPDSGVPSLRAAGPGLFLGELSCPPAAPGPWAAEANVLVLVLPGPEGNGEPLAPALGEAALAALARGTPLLAVRNLRPGDSQTAAQARDQTAALLNSAGLGAADLFVLPANCGSSDGCEELERLRAALQSQAEALRRLLPPAQDGFEVLGAAELEAVREAFETGGLEAALSWVRSGLERLGSARLDLAVAGKADVGLVVDMLLGLDPGDPGAAPASVPTAPTPFPAPERPNVVLWTVPLGHTGTATTAAAASHPTHYDALILVTPGAPTEKDWAQVQALLLPDAPLVCVRTDGEGEDPECLGEGKMENPKGESLKNAGGGGLENALSKGREKCSAGSQKAGSGEGPGKAGSEGLQQVVGMKKSGGGDSERAAALSPEDETWEVLEEAPPPVFPLRPGGLPGLCEWLRRALPPAQAGALLLALPPASPSAARTKAAALRAGAWRPALLASLAAAAAPLPGLGWACDVALLRGQLAEWRRGLGLEPTALARRERALGLASGELAARAHFPGPVTRAEVEARLGAWAGEGTAGGAALGALSFLWPAGGAAATGGLGYRAAHGVLLQALDEMRADAEAVLAPPEPAQ [IRGQ]”, the thermal stability score was -0.649 in the data set on HeLa Kyoto [1] (setting [5]) and 0.0432 with HeLa Kyoto [1] (cell cycle stage: mitosis). In addition, the “solubility in G1/S (log2)” value in the data set with HeLa Kyoto [2] came to 0.437. Also, the melting temperature in the data set with HeLa Kyoto [3] (cell cycle stage: G1/S) and in the data set with HeLa Kyoto [3] (cell cycle stage: mitosis) was 51.3 °C each time. Besides, in the data set on HeLa Kyoto [4], the “solubility change mitosis (log2)” value was found to be 0.141.
For “MPPPSDIVKVAIEWPGANAQLLEIDQKRPLASIIKEVCDGWSLPNPEYYTLRYADGPQLYITEQTRSDIKNGTILQLAISPSRAARQLMERTQSSNMETRLDAMKELAKLSADVTFATEFINMDGIIVLTRLVESGTKLLSHYSEMLAFTLTAFLELMDHGIVSWDMVSITFIKQIAGYVSQPMVDVSILQRSLAILESMVLNSQSLYQKIAEEITVGQLISHLQVSNQEIQTYAIALINALFLKAPEDKRQDMANAFAQKHLRSIILNHVIRGNRPIKTEMAHQLYVLQVLTFNLLEERMMTKMDPNDQAQRDIIFELRRIAFDAESDPSNAPGSGTEKRKAMYTKDYKMLGFTNHINPAMDFTQTPPGMLALDNMLYLAKVHQDTYIRIVLENSSREDKHECPFGRSAIELTKMLCEILQVGELPNEGRNDYHPMFFTHDRAFEELFGICIQLLNKTWKEMRATAEDFNKVMQVVREQITRALPSKPNSLDQFKSKLRSLSYSEILRLRQSERMSQDDFQSPPIVELREKIQPEILELIKQQRLNRLCEGSSFRKIGNRRRQERFWYCRLALNHKVLHYGDLDDNPQGEVTFESLQEKIPVADIKAIVTGKDCPHMKEKSALKQNKEVLELAFSILYDPDETLNFIAPNKYEYCIWIDGLSALLGKDMSSELTKSDLDTLLSMEMKLRLLDLENIQIPEAPPPIPKEPSSYDFVYHYG [ELMO2]”, the results for the thermal stability score in the data set on HeLa Kyoto [1] (setting [5]) and with HeLa Kyoto [1] (cell cycle stage: mitosis) were 0.0114 and 0.0809, respectively. The “solubility in G1/S (log2)” value in the data set with HeLa Kyoto [2] came out at 0.00667. Moreover, the melting temperature in the data set with HeLa Kyoto [3] (cell cycle stage: G1/S) and with HeLa Kyoto [3] (cell cycle stage: mitosis) was 49.5 °C in each case. The “solubility change mitosis (log2)” value in the data set with HeLa Kyoto [4] is -0.134.
Regarding “MPQTRSQAQATISFPKRKLSRALNKAKNSSDAKLEPTNVQTVTCSPRVKALPLSPRKRLGDDNLCNTPHLPPCSPPKQGKKENGPPHSHTLKGRRLVFDNQLTIKSPSKRELAKVHQNKILSSVRKSQEITTNSEQRCPLKKESACVRLFKQEGTCYQQAKLVLNTAVPDRLPAREREMDVIRNFLREHICGKKAGSLYLSGAPGTGKTACLSRILQDLKKELKGFKTIMLNCMSLRTAQAVFPAIAQEICQEEVSRPAGKDMMRKLEKHMTAEKGPMIVLVLDEMDQLDSKGQDVLYTLFEWPWLSNSHLVLIGIANTLDLTDRILPRLQAREKCKPQLLNFPPYTRNQIVTILQDRLNQVSRDQVLDNAAVQFCARKVSAVSGDVRKALDVCRRAIEIVESDVKSQTILKPLSECKSPSEPLIPKRVGLIHISQVISEVDGNRMTLSQEGAQDSFPLQQKILVCSLMLLIRQLKIKEVTLGKLYEAYSKVCRKQQVAAVDQSECLSLSGLLEARGILGLKRNKETRLTKVFFKIEEKEIEHALKDKALIGNILATGLP [CDC6]”, the thermal stability score with HeLa Kyoto [1] (setting [5]) amounted to 0.564; with HeLa Kyoto [1] (cell cycle stage: mitosis) it was 0.496. Further, in the data set on HeLa Kyoto [2], the “solubility in G1/S (log2)” value was -0.114. Also, the melting temperature in the data set on HeLa Kyoto [3] (cell cycle stage: G1/S) worked out at 50.1 °C; in the data set with HeLa Kyoto [3] (cell cycle stage: mitosis), 53.2 °C. For the same sequence, the “solubility change mitosis (log2)” value in the data set with HeLa Kyoto [4] was found to be 0.351.
“MPRAPAPLYACLLGLCALLPRLAGLNICTSGSATSCEECLLIHPKCAWCSKEDFGSPRSITSRCDLRANLVKNGCGGEIESPASSFHVLRSLPLSSKGSGSAGWDVIQMTPQEIAVNLRPGDKTTFQLQVRQVEDYPVDLYYLMDLSLSMKDDLDNIRSLGTKLAEEMRKLTSNFRLGFGSFVDKDISPFSYTAPRYQTNPCIGYKLFPNCVPSFGFRHLLPLTDRVDSFNEEVRKQRVSRNRDAPEGGFDAVLQAAVCKEKIGWRKDALHLLVFTTDDVPHIALDGKLGGLVQPHDGQCHLNEANEYTASNQMDYPSLALLGEKLAENNINLIFAVTKNHYMLYKNFTALIPGTTVEILDGDSKNIIQLIINAYNSIRSKVELSVWDQPEDLNLFFTATCQDGVSYPGQRKCEGLKIGDTASFEVSLEARSCPSRHTEHVFALRPVGFRDSLEVGVTYNCTCGCSVGLEPNSARCNGSGTYVCGLCECSPGYLGTRCECQDGENQSVYQNLCREAEGKPLCSGRGDCSCNQCSCFESEFGKIYGPFCECDNFSCARNKGVLCSGHGECHCGECKCHAGYIGDNCNCSTDISTCRGRDGQICSERGHCLCGQCQCTEPGAFGEMCEKCPTCPDACSTKRDCVECLLLHSGKPDNQTCHSLCRDEVITWVDTIVKDDQEAVLCFYKTAKDCVMMFTYVELPSGKSNLTVLREPECGNTPNAMTILLAVVGSILLVGLALLAIWKLLVTIHDRREFAKFQSERSRARYEMASNPLYRKPISTHTVDFTFNKFNKSYNGTVD [ITGB5]”: the thermal stability score with HeLa Kyoto [1] (setting [5]) worked out at 0.876; in the data set with HeLa Kyoto [1] (cell cycle stage: mitosis) it was 3.15. For the same sequence, in the data set with HeLa Kyoto [2], the “solubility in G1/S (log2)” value is -0.15. The melting temperature was 56 °C in the data set with HeLa Kyoto [3] (cell cycle stage: G1/S) and 56.7 °C in the data set on HeLa Kyoto [3] (cell cycle stage: mitosis). In addition, the “solubility change mitosis (log2)” value in the data set with HeLa Kyoto [4] turned out to be 0.0246.
As to “MPRVKAAQAGRQSSAKRHLAEQFAVGEIITDMAKKEWKVGLPIGQGGFGCIYLADMNSSESVGSDAPCVVKVEPSDNGPLFTELKFYQRAAKPEQIQKWIRTRKLKYLGVPKYWGSGLHDKNGKSYRFMIMDRFGSDLQKIYEANAKRFSRKTVLQLSLRILDILEYIHEHEYVHGDIKASNLLLNYKNPDQVYLVDYGLAYRYCPEGVHKEYKEDPKRCHDGTIEFTSIDAHNGVAPSRRGDLEILGYCMIQWLTGHLPWEDNLKDPKYVRDSKIRYRENIASLMDKCFPEKNKPGEIAKYMETVKLLDYTEKPLYENLRDILLQGLKAIGSKDDGKLDLSVVENGGLKAKTITKKRKKEIEESKEPGVEDTEWSNTQTEEAIQTRSRTRKRVQK [VRK1]”, the values for the thermal stability score with HeLa Kyoto [1] (setting [5]) and in the data set with HeLa Kyoto [1] (cell cycle stage: mitosis) were 3.16 and 3.91, respectively. The “solubility in G1/S (log2)” value in the data set with HeLa Kyoto [2] was -0.215. For the same sequence, the melting temperature in the data set with HeLa Kyoto [3] (cell cycle stage: G1/S) came out at 48.2 °C; in the data set on HeLa Kyoto [3] (cell cycle stage: mitosis), 49.8 °C. In the data set with HeLa Kyoto [4], the “solubility change mitosis (log2)” value was -0.0401.
In the case of “MPRVVPDQRSKFENEEFFRKLSRECEIKYTGFRDRPHEERQARFQNACRDGRSEIAFVATGTNLSLQFFPASWQGEQRQTPSREYVDLEREAGKVYLKAPMILNGVCVIWKGWIDLQRLDGMGCLEFDEERAQQEDALAQQAFEEARRRTREFEDRDRSHREEMEVRVSQLLAVTGKKTTRP [CBFB]”, the thermal stability score in the data set with HeLa Kyoto [1] (setting [5]) is 0.755; in the data set with HeLa Kyoto [1] (cell cycle stage: mitosis), 0.955. Further, the “solubility in G1/S (log2)” value in the data set on HeLa Kyoto [2] came out at 0.199. In addition, the figures for the melting temperature in the data set on HeLa Kyoto [3] (cell cycle stage: G1/S) and in the data set on HeLa Kyoto [3] (cell cycle stage: mitosis) were 49 °C and 51.2 °C, respectively. The “solubility change mitosis (log2)” value with HeLa Kyoto [4] is -0.072.
Turning to “MPRVYIGRLSYQARERDVERFFKGYGKILEVDLKNGYGFVEFDDLRDADDAVYELNGKDLCGERVIVEHARGPRRDGSYGSGRSGYGYRRSGRDKYGPPTRTEYRLIVENLSSRCSWQDLKDYMRQAGEVTYADAHKGRKNEGVIEFVSYSDMKRALEKLDGTEVNGRKIRLVEDKPGSRRRRSYSRSRSHSRSRSRSRHSRKSRSRSGSSKSSHSKSRSRSRSGSRSRSKSRSRSQSRSRSKKEKSRSPSKEKSRSRSHSAGKSRSKSKDQAEEKIQNNDNVGKPKSRSPSRHKSKSKSRSRSQERRVEEEKRGSVSRGRSQEKSLRQSRSRSRSKGGSRSRSRSRSKSKDKRKGRKRSREESRSRSRSRSKSERSRKRGSKRDSKAGSSKKKKKEDTDRSQSRSPSRSVSKEREHAKSESSQREGRGESENAGTNQETRSRSRSNSKSKPNLPSESRSRSKSASKTRSRSKSRSRSASRSPSRSRSRSHSRS [SRSF4]”, the thermal stability score was -1.55 in the data set on HeLa Kyoto [1] (setting [5]) and -1 in the data set with HeLa Kyoto [1] (cell cycle stage: mitosis). Besides, the “solubility in G1/S (log2)” value in the data set with HeLa Kyoto [2] is -0.671. The melting temperature turned out to be 50.7 °C with HeLa Kyoto [3] (cell cycle stage: G1/S) and 50.2 °C with HeLa Kyoto [3] (cell cycle stage: mitosis). In addition, the “solubility change mitosis (log2)” value in the data set with HeLa Kyoto [4] was 0.361.
